US20240247042A1, “GLUCAGON LIKE PEPTIDE COMPOUNDS” (Novartis AG, priority 2021, published 2024)
Read-outs that look alike come from different tables or passages of the source. Values belong to the molecule of their own block, whether it stands above or below them.

How the values were obtained:
[1] = biological target: cynomolgus GLP1 receptor (cynoGLP1R), on HEK293-cynoGLP1R F6 cells (cynomolgus) (UniProt F8V479); assay: cell-based or functional assay
[2] = Acute food intake study in DIO mice; assay type: in vivo, C57BL/6 mice; settings: single s.c., 120 μg/kg
Protocol: Males 24-30 weeks of age were used in the studies. Animals were housed one per cage in a normal light cycle (6:00 am-6:00 pm lights on, otherwise lights off) room, under an approved IACUC protocol. […] At the start of the study, food weight was recorded and animals were subcutaneously dosed with a test compound.

[3] = Efficacy study: body weight loss in DIO mice; assay type: in vivo, C57BL/6 mice; settings: s.c., 120 μg/kg QD, Day 30
Protocol: Males 24-30 weeks of age were used in the studies (n=7/group). Animals were housed one per cage in a normal light cycle room, under an approved IACUC protocol. […] Compound(s) or vehicle were given QD or when indicated 03D (every 3 days). […] Body weight and food intake were measured daily.

[4] = biological target: T1, mouse GLP1 receptor (mGLP1R) (Mus musculus, UniProt O35659); assay: Mouse GLP1R cAMP agonist assay; assay type: cell-based; settings: percent of GLP1(7-36) EC100
T1 construct: host or cells: HEK293T CRE-Luc (called HEK293), clone C3
T1 sequence (O35659 22-463): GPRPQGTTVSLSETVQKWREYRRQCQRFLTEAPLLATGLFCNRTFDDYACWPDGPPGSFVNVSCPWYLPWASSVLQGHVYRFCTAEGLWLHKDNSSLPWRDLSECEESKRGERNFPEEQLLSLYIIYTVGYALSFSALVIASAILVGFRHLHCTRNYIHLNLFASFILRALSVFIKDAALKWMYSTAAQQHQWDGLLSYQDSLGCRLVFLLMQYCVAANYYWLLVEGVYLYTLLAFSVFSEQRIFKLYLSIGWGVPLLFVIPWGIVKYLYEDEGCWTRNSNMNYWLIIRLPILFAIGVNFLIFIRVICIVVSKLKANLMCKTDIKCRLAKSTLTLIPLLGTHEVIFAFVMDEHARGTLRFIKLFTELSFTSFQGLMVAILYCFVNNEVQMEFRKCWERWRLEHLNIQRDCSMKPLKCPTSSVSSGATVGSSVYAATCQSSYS
Protocol: (§1) Compounds described herein were tested in the following cellular assays that measures the intracellular cAMP concentration. The cAMP is generated by the activation of GLP1R. EC50 is defined as the concentration of the compound that leads to half of the maximum response (after baseline correction).
The following day, cells were transfected as follows. The DNA complex was prepared as 0.020 μg/μL by adding 37 μg of plasmid DNA encoding mouse GLP1R cDNA (GeneCopoeia, cat #EX-Mm23901-M67; NCBI Reference Sequence: NM_021332.2) in 1758 μL Opti-MEM solution. Then, 112 μL of FuGENE® HD reagent were added to that by mixing carefully. After 5-10 min incubation at RT, 850 μL of DNA complex per well were added to the cells, and mixed thoroughly.

human GLP1R [5] = biological target: T2, human GLP1R (Homo sapiens, UniProt P43220); assay: Human GLP1R DERET internalization assay; assay type: cell-based
T2 sequence (P43220 24-463): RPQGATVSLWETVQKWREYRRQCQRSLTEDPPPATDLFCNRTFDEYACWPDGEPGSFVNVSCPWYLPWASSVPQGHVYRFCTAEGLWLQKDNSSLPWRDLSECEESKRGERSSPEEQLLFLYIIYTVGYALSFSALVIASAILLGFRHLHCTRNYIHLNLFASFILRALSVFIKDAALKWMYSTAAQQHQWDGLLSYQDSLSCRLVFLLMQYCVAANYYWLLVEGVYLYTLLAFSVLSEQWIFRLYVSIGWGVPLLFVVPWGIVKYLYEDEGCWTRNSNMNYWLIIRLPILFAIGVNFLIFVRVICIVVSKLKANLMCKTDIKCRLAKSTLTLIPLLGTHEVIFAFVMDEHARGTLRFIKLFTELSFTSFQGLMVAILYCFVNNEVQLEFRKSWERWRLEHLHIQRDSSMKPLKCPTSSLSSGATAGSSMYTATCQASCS

[6] = Tolerability assessment: emesis and FI in obese monkeys; assay type: in vivo; settings: single dose s.c. 30 μg/kg
Description: Efficacy was defined as a reduction in FI and BW. Tolerability, assessed as reduced and/or absence of emesis and retained interest in a selection of fruits and vegetables and peanuts as treats.

human GLP1R [7] = biological target: T2, human GLP1R; assay: Human GLP1R DERET recycling assay; assay type: cell-based
human GLP1R (hGLP1R) [8] = biological target: T3, human GLP1R (hGLP1R) (Homo sapiens, UniProt P43220); assay: Human GLP1R cAMP agonist assay (GloSensor); assay type: cell-based
Target sequence in this assay (P43220 24-463): as above
Protocol: as §1
The agonist activity of compounds was determined using the GloSensor™ cAMP Assay (Promega Corp.), which measures changes in the intracellular concentration of cAMP after ligand activation of GPCRs. The assay uses a biosensor encoded by pGloSensor™-22F cAMP plasmid (Promega, cat #E2301) with cAMP binding domains fused to a mutant form of Photinus pyralis luciferase. Binding to cAMP causes conformational changes that promote large increases in light output, which can be measured by a luminescence detector. […] The assay was started the following morning by adding an equal volume of CO2-independent media containing 4% v/v dilution of the GloSensor substrate (Promega, cat #E1291) to all wells. The cell plate was incubated at RT for 2 h in the dark. The Biomek i7 (Beckman Coulter) instrument was used for the liquid handling steps. To generate duplicate dose response curves, 3-fold serially diluted compounds were added in to the cell assay plate to a final volume of 60 μL with final concentrations ranging from 100 nM through 0.03 pM in CO2-independent media containing 0.1% BSA, 0.5 mM IBMX and 0.4% DMSO. […] Curve fitting for EC50 determinations was performed in the Helios module of the software package DAVID. The 4-parameter logistic model, Hill slope was used: y=Ainf+(A0−Ainf)/(1+(x/AC50)^Hill Slope), where y is the functional response; x is the compound concentration; A0 is the minimum value (at 0 dose); Ainf is the maximum value (at infinite dose); AC50 corresponds to the point of inflection (i.e., the point on the sigmoid shaped curve halfway between A0 and Ainf). The EC50 value was represented by the AC50 value calculated from Helios in μM. Emax is the maximal activity detected within the concentration range, derived from the fitted curve.
The HEK293-SNAP-hGLP1R stable cell clone that yielded the desired response was used for human GLP1R cAMP agonist assay.

human GLP1R (hGLP1R) [9] = biological target: T3, human GLP1R (hGLP1R); assay: Human GLP1R β-arrestin recruitment assay (PathHunter); assay type: cell-based; set-up: GeneArt (insert) 93-0164 (CHO-K1-EA parental cells); 93-0491 (pCMV PK vector bundle); host or cells: PathHunter CHO-K1-EA parental cells, single clone 1
Target sequence in this assay (P43220 24-463): as above
Target sequence in this assay (P32121 whole entry partner): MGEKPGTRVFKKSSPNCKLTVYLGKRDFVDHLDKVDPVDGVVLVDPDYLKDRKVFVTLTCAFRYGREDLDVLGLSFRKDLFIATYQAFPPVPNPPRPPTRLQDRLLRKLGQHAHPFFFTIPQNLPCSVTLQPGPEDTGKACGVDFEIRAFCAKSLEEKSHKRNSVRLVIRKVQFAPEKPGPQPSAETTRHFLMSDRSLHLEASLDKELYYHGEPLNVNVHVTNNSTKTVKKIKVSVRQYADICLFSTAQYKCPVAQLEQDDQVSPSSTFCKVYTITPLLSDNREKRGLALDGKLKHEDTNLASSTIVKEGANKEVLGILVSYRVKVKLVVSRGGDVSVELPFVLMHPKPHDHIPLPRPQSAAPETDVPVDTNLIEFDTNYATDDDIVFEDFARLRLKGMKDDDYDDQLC
Protocol: The extent to which agonists recruited β-arrestin was measured using the PathHunter® β-arrestin assay (DiscoverX). This assay measures binding of β-arrestin to the receptor using an enzyme complementation approach. […] When β-arrestin is recruited to the receptor the enzyme becomes active and generates luminescence in the presence of a chemiluminescent substrate (PathHunter® Detection Kit, DiscoverX cat #93-0001). Luminescence can be measured on a relevant detector. […] The following day, agonists were prepared at 5 times the final required concentration. To generate triplicate dose response curves, compounds were serially diluted 3-fold in assay buffer (HBSS, 10 mM Hepes and 0.1% BSA), then added to the cell assay plate to a final volume of 25 μL and final top concentrations starting at 3 μM or less, depending on the compound. […] The plate was incubated at 37° C., 5% CO2 with humidity for 2 h after adding the compounds to the cells. […] The plate was incubated for an additional hour in the dark at RT. […] Curve fitting for EC50 determinations was performed using GraphPad Prism. The 4-parameter logistic model, Hill slope was used: Y=Bottom+(Top−Bottom)/(1+10^((Log EC50−X)*Hill Slope)), where Y is the functional response; X is the compound concentration; bottom is A0 or the minimum value (at 0 dose); top is Ainf or the maximum value (at infinite dose); EC50 is the point of inflection (i.e., the point on the sigmoid shaped curve halfway between A0 and Ainf). The EC50 value was calculated in μM.

[10] = biological target: T4, human GLP1 receptor (hGLP1R) fused with a SNAP tag, on HEK293-SNAP-hGLP1R-GloSensor cells (human, UniProt P43220 24-463); assay: cell-based or functional assay
[11] = biological target: human GLP1R (hGLP1R) with a Prolink tag, on CHO-hGLP1R-β-arrestin cells (human, UniProt P43220 24-463); assay: cell-based or functional assay
[12] = biological target: T5, mouse GLP1 receptor (mGLP1R), on HEK293-mGLP1R CRE-Luc (Clone C3) cells (mouse, UniProt O35659 22-463); assay: cell-based or functional assay
T5 sequence (looked up): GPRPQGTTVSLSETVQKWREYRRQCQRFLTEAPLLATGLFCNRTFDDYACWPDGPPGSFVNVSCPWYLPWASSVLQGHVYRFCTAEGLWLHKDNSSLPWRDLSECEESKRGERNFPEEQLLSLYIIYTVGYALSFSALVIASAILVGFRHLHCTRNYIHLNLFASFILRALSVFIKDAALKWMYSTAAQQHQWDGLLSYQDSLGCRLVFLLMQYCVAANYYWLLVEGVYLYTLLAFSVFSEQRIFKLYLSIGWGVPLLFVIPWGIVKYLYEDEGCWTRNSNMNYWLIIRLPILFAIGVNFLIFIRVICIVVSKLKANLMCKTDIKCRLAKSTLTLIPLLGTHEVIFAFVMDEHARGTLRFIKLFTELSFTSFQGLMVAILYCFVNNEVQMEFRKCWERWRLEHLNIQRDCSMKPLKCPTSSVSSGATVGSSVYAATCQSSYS

[13] = biological target: T4, human GLP1 receptor (hGLP1R) fused with …; assay: cell-based or functional assay; remark: listed apart in the source
[14] = biological target: cynomolgus GLP1 receptor (cynoGLP1R), on HEK293-cynoGLP1R F6 cells (cynomolgus, UniProt F8V479 24-463); assay: cell-based or functional assay
[15] = biological target: T4, human GLP1 receptor (hGLP1R) fused with …; assay: cell-based or functional assay; remark: listed apart in the source
[16] = maximum receptor recycled as proportion of amount internalized

- cynoGLP1R cAMP assay (HTRF): EC50 mean [1]: 0.0491 nM
Molecule: semaglutide acetate salt (peptide)

- cynoGLP1R cAMP assay (HTRF): EC50 mean [1]: 0.0217 nM
- cynoGLP1R cAMP assay (HTRF): Emax mean, % of GLP1(7-36) [1]: 100%
Molecule: GLP1(7-36) peptide (from UniProt P01275 98-127) (ligand)

Molecule: semaglutide
- FI @ 24 h [2]: −86 ± 1 % baseline
- Weight loss [3]: −17.8 ± 1.2 % baseline
- Emax mean [4]: 106%
- Emax mean (human GLP1R [5]): 91%
- FI reduction observed [6]: Yes
- Receptor recycled mean (human GLP1R [7]): 64%
- T1/2 mean (human GLP1R [7]): 1.677 h

Molecule: CCCCCCCCCCCC(CCCCCCCCCCC(=O)O)(C(=O)O)C(=O)NCCOCCOCCOCCOCCOCCOCCOCCOCCC(=O)NCCCC[C@H](NC(=O)[C@H](C)NC(=O)[C@H](C)NC(=O)[C@H](CCC(N)=O)NC(=O)CNC(=O)[C@H](CCC(=O)O)NC(=O)[C@H](CC(C)C)NC(=O)[C@H](Cc1ccc(O)cc1)NC(=O)[C@H](CO)NC(=O)[C@H](CO)NC(=O)[C@@H](NC(=O)[C@H](CC(=O)O)NC(=O)[C@H](CO)NC(=O)[C@@H](NC(=O)[C@H](Cc1ccccc1)NC(=O)[C@@H](NC(=O)CNC(=O)[C@H](CCC(=O)O)NC(=O)C(C)(C)NC(=O)[C@@H](N)Cc1c[nH]cn1)[C@@H](C)O)[C@@H](C)O)C(C)C)C(=O)N[C@@H](CCC(=O)O)C(=O)N[C@@H](Cc1ccccc1)C(=O)N[C@H](C(=O)N[C@@H](C)C(=O)N[C@@H](Cc1c[nH]c2ccccc12)C(=O)N[C@@H](CC(C)C)C(=O)N[C@H](C(=O)N[C@@H](CCCNC(=N)N)C(=O)NCC(=O)N[C@@H](CCCNC(=N)N)C(=O)NCC(=O)O)C(C)C)[C@@H](C)CC (stereo partly shown) [Compound 4]
- Emax (human GLP1R [5]): 100%
- Emax (human GLP1R (hGLP1R) [8]): 119%
- Receptor recycled mean (human GLP1R [7]; [16]): 65%
- Emax (human GLP1R (hGLP1R) [9]): 84%

Molecule: CC[C@H](C)[C@H](NC(=O)[C@H](Cc1ccccc1)NC(=O)[C@H](CCC(=O)O)NC(=O)[C@H](CCCCNC(=O)CCOCCOCCOCCOCCOCCOCCOCCOCCOCCOCCOCCOCCOCCOCCOCCOCCOCCOCCOCCOCCOCCOCCOCCOCCNC(=O)C(CCCCCCCCCCC(=O)O)(CCCCCCCCCCC(=O)O)C(=O)O)NC(=O)[C@H](C)NC(=O)[C@H](C)NC(=O)[C@H](CCC(N)=O)NC(=O)CNC(=O)[C@H](CCC(=O)O)NC(=O)[C@H](CC(C)C)NC(=O)[C@H](Cc1ccc(O)cc1)NC(=O)[C@H](CO)NC(=O)[C@H](CO)NC(=O)[C@@H](NC(=O)[C@H](CC(=O)O)NC(=O)[C@H](CO)NC(=O)[C@@H](NC(=O)[C@H](Cc1ccccc1)NC(=O)[C@@H](NC(=O)CNC(=O)[C@H](CCC(=O)O)NC(=O)C(C)(C)NC(=O)[C@@H](N)Cc1c[nH]cn1)[C@@H](C)O)[C@@H](C)O)C(C)C)C(=O)N[C@@H](C)C(=O)N[C@@H](Cc1c[nH]c2ccccc12)C(=O)N[C@@H](CC(C)C)C(=O)N[C@H](C(=O)N[C@@H](CCCNC(=N)N)C(=O)NCC(=O)N[C@@H](CCCNC(=N)N)C(=O)NCC(=O)O)C(C)C [Compound 6]
- Emax (human GLP1R [5]): 92%
- Emax (human GLP1R (hGLP1R) [8]): 111%
- Receptor recycled mean (human GLP1R [7]; [16]): 70%
- T1/2 mean (human GLP1R [7]; rate at which receptor recycled back to the membrane after Exendin 9-39): 1.15 h
- Emax (human GLP1R (hGLP1R) [9]): 75%
- EC50 (human GLP1R (hGLP1R) [9]; CHO-hGLP1R-β-arrestin cells): 70 nM

- hGLP1R cAMP assay (GloSensor): EC50 mean [10]: 0.00573 nM
- β-arrestin recruitment (PathHunter): EC50 mean [11]: 70 nM
- mGLP1R cAMP assay (HTRF): EC50 mean [12]: 0.034 nM
B1: Compound 6 (peptide)
peptide: HXEGTFTSDVSSYLEGQAAKEFIAWLVRGRG
modifications: Aib at position 8 (GLP-1 numbering); side-chain NH of the Lys residue acylated, via a PEG24 linker, with the 11-carbamoyl-henicosane-1,11,21-tricarboxylic acid moiety (from NHS ester Intermediate 29)

- receptor recycling (DERET, after Exendin 9-39): T1/2 mean [13]: 2.25 h
- cynoGLP1R cAMP assay (HTRF): EC50 mean [14]: 0.577 nM
- cynoGLP1R cAMP assay (HTRF): Emax mean, % of GLP1(7-36) [14]: 103%
B2: Compound 5 (peptide)
peptide: HXEGTFTSDVSSYLEGQAAKEFIAWLVRGRG
modifications: Aib at position 8 (GLP-1 numbering); side-chain NH of the Lys residue acylated, via a PEG2 linker, with 2-undecyltridecanedioic acid (from NHS ester Intermediate 22)

- β-arrestin recruitment (PathHunter): EC50 mean [11]: > 2000 nM
- β-arrestin recruitment (PathHunter): Emax mean, % of GLP1(7-36) [11]: 37%
- receptor internalization (DERET): Emax mean, % of GLP1(7-36) [15]: 22%
- mGLP1R cAMP assay (HTRF): EC50 mean [12]: 0.686 nM
B3: Compound 9 (peptide)
peptide: HXEGTFTSDVSSYLEGQAAKEFIAWLVRGRG
modifications: Aib at position 8 (GLP-1 numbering); side-chain NH of the Lys residue acylated, via a PEG24 linker, with the 15-carbamoyl-nonacosane-1,15,29-tricarboxylic acid moiety (from NHS ester Intermediate 50)

- receptor internalization (DERET): EC50 mean [15]: 372 nM
B4: Compound 3: Diastereomer 2 (peptide)
peptide: HXEGTFTSDVSSYLEGQAAKEFIAWLVRGRG
modifications: Aib at position 8 (GLP-1 numbering); side-chain NH of the Lys residue acylated, via a PEG24 linker, with (R)-2-undecyltridecanedioic acid (from NHS ester Intermediate 15B, R-enantiomer)

- hGLP1R cAMP assay (GloSensor): EC50 mean [10]: 0.105 nM
B5: Compound 8 (peptide)
peptide: HXEGTFTSDVSSYLEGQAAKEFIAWLVRGRG
modifications: Aib at position 8 (GLP-1 numbering); side-chain NH of the Lys residue acylated, via a PEG24 linker, with the 14-carbamoyl-heptacosane-1,14,27-tricarboxylic acid moiety (from NHS ester Intermediate 43)

- hGLP1R cAMP assay (GloSensor): Emax mean, % of GLP1(7-36) [10]: 105%
- β-arrestin recruitment (PathHunter): EC50 mean [11]: 192 nM
B6: Compound 1 (Diastereomeric Mixture) (peptide)
peptide: HXEGTFTSDVSSYLEGQAAKEFIAWLVRGRG
modifications: Aib at position 8 (GLP-1 numbering); side-chain NH of the Lys residue acylated, via a PEG24 linker, with 2-undecyltridecanedioic acid (from NHS ester Intermediate 6); diastereomeric mixture at the quaternary carbon of the fatty acid

- β-arrestin recruitment (PathHunter): EC50 mean [11]: 133 nM
- receptor internalization (DERET): EC50 mean [15]: 331 nM
B7: Compound 2: Diastereomer 1 (peptide)
peptide: HXEGTFTSDVSSYLEGQAAKEFIAWLVRGRG
modifications: Aib at position 8 (GLP-1 numbering); side-chain NH of the Lys residue acylated, via a PEG24 linker, with (S)-2-undecyltridecanedioic acid (from NHS ester Intermediate 15A, S-enantiomer)

- β-arrestin recruitment (PathHunter): EC50 mean [11]: 235 nM
- mGLP1R cAMP assay (HTRF): EC50 mean [12]: 0.428 nM
B8: Compound 4 (peptide)
peptide: HXEGTFTSDVSSYLEGQAAKEFIAWLVRGRG
modifications: Aib at position 8 (GLP-1 numbering); side-chain NH of the Lys residue acylated, via a PEG8 linker, with 2-undecyltridecanedioic acid (from NHS ester Intermediate 19)

- β-arrestin recruitment (PathHunter): EC50 mean [11]: 178 nM
- receptor internalization (DERET): EC50 mean [15]: 367 nM
B9: Compound 7 (peptide)
peptide: HXEGTFTSDVSSYLEGQAAKEFIAWLVRGRG
modifications: Aib at position 8 (GLP-1 numbering); side-chain NH of the Lys residue acylated, via a PEG24 linker, with the 12-carbamoyl-tricosane-1,12,23-tricarboxylic acid moiety (from NHS ester Intermediate 36)
